# According to patent US20200123264A1 (Regeneron, published 2020):
# T1: human LEPR Ig (D3)-MMH (human, UniProt P48357 340-427, limits assumed)
# T1 construct: domain: Ig (D3); Transiently expressed, captured from supernatant on anti-myc beads
# T1 sequence (looked up): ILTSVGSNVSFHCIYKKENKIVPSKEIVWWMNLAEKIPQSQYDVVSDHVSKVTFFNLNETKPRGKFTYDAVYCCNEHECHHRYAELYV
# T2: human LEPR CRH1 (D1)-MMH (human, UniProt P48357 22-229, limits assumed)
# T2 construct: domain: CRH1 (D1); Transiently expressed, captured from supernatant on anti-myc beads
# T2 sequence (looked up): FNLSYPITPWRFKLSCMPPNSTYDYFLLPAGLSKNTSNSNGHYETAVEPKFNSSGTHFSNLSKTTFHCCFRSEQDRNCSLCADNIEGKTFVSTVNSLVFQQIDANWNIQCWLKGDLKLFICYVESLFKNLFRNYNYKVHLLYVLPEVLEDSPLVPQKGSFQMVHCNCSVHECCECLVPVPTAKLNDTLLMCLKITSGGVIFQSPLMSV
# T3: human LEPR CRH2-MMH (human, UniProt P48357 428-634, limits assumed)
# T3 construct: domain: CRH2; Transiently expressed, captured from supernatant on anti-myc beads
# T3 sequence (looked up): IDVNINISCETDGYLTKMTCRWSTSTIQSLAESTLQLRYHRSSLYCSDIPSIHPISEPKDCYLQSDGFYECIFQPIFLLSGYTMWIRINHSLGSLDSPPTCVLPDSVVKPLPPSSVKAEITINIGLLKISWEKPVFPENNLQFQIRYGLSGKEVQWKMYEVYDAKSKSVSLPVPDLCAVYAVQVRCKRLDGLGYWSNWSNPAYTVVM
# T4: human LEPR CRH1 (D1,D2,D3)-MMH (human, UniProt P48357 22-427, limits assumed)
# T4 construct: domain: CRH1-Ig (D1,D2,D3); Transiently expressed, captured from supernatant on anti-myc beads; also called CRH1-Ig (D1, D2, D3)
# T4 sequence (looked up): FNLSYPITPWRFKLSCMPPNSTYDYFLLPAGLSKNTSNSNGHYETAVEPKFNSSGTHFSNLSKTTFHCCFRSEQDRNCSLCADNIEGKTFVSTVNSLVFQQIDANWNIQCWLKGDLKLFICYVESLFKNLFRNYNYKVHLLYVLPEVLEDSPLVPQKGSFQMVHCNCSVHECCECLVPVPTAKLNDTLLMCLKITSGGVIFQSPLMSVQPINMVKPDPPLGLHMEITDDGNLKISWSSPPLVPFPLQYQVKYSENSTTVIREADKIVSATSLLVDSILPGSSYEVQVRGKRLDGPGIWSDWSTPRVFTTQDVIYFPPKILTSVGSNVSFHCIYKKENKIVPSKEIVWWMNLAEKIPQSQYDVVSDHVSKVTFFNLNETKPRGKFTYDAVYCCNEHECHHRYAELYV
# T5: human LEPR Ig-CRH2-FNIII-MMH (human, UniProt P48357 330-839, limits assumed)
# T5 construct: domain: Ig-CRH2-FNIII; Transiently expressed, captured from supernatant on anti-myc beads
# T5 sequence (looked up): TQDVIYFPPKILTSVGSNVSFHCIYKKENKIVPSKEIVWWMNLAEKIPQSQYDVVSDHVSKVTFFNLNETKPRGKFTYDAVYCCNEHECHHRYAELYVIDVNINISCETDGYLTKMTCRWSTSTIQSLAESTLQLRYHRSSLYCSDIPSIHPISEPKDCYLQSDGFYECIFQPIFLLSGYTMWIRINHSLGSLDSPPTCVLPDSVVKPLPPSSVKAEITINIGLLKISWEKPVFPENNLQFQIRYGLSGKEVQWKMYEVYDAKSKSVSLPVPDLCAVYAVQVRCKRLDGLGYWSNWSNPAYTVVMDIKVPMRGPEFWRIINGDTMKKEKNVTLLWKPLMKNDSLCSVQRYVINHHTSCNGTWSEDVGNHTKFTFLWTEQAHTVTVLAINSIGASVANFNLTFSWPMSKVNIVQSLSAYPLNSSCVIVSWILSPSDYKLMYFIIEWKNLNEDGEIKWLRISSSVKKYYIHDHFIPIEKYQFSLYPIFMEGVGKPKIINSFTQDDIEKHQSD
# T6: human LEPR CRH1-Ig (D2,D3)-MMH (human, UniProt P48357 230-427, limits assumed)
# T6 construct: domain: CRH1-Ig (D2,D3); Transiently expressed, captured from supernatant on anti-myc beads
# T6 sequence (looked up): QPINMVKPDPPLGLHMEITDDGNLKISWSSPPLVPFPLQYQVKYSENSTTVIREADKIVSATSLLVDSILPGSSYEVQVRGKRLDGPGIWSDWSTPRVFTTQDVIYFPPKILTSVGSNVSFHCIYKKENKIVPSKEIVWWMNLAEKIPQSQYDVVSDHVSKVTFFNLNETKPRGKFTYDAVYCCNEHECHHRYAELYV
# B1: H4H18462P2 (antibody, human IgG4, V domains shown)
# VH: EVQLVESGGDLVQPGRSLRLSCAASGFTFSSFAMSWVRQAPGRGLEWVSSLSDSGDNTYYADSVKGRFTISRDNSKNTLYLQMNNLRAEDTAVYYCAKDLFSGWLFHGFDVWGQGTMVTVSS
# VL: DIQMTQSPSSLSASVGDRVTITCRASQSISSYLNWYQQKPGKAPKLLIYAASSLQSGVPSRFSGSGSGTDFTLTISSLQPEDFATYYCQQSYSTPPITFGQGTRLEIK
# notes: H4H prefix: human IgG4 Fc
# Legend:
# Assay in all cases: Luminex, myc-captured LEPR protein on beads, Ab 0.5 µg/mL
# [1] = biological target: T1, human LEPR Ig (D3)-MMH
# Protocol: (§1) Aliquots of microspheres with immobilized anti-myc monoclonal antibodies, prepared as described above, were added individually to 1 mL of the each of these protein supernatants. The microspheres were gently mixed, incubated for two hours at 25° C., washed twice with 1 mL of DBPS, centrifuged to remove the supernatant and finally resuspended in 1 mL of DPBS buffer. Forty eight μL of anti-myc IgG coupled microspheres from individual reactions with full length human LEPR and with each of the human LEPR domain proteins were withdrawn and mixed together in 3.6 mL of PBS+20 mg/mL BSA+0.05% sodium azide (blocking buffer).
# (§2) From this mixed pool, 75 μL of microspheres were plated per well on a 96 well filter plate (Millipore, Cat. No: MSBVN1250) and mixed with 25 μL of individual anti-human LEPR monoclonal antibodies (0.5 or 5 μg/mL), incubated for two hours at 25° C. and then washed twice with 200 μL of DPBS with 0.05% Tween 20 (washing buffer). […] After 30 minutes, the samples were washed twice with 200 μL of washing buffer and resuspended in 150 μL of wash buffer. The Median Fluorescence intensity (MFI) of the microspheres was measured in a Luminex Analyzer.
# [2] = biological target: T2, human LEPR CRH1 (D1)-MMH
# Protocol: as §1, §2
# [3] = biological target: T3, human LEPR CRH2-MMH
# Protocol: as §1, §2
# [4] = biological target: T4, human LEPR CRH1 (D1,D2,D3)-MMH
# Protocol: as §1, §2
# [5] = biological target: T5, human LEPR Ig-CRH2-FNIII-MMH
# Protocol: as §1, §2
# [6] = biological target: T6, human LEPR CRH1-Ig (D2,D3)-MMH
# Protocol: as §1, §2
binder,measurement,setting,value
B1,Luminex MFI,[1],10 MFI
same,Luminex MFI,[2],615 MFI
same,Luminex MFI,[3],8 MFI
same,Luminex MFI,[4],461 MFI
same,Luminex MFI,[5],11200 MFI
same,Luminex MFI,[6],25 MFI
